Drawing on patent publication US20250011428A1, this text covers Maximum response in RGA assay (LU) and Maximum response for 18 molecules.

First the molecules themselves.
B1: CD3_2 (antibody, human IgG1, lambda)
heavy: EVQLVESGGGLVQPGGSLKLSCAASGFTFNTYAMNWVRQASGKGLEWVGRIRSKYNNYATYYADSVKDRFTISRDDSKSTLYLQMNSLKTEDTAVYYCVRHGNFGNSYVSWFAYWGQGTLVTVSSASTKGPSVFPLAPSSKSTSGGTAALGCLVKDYFPEPVTVSWNSGALTSGVHTFPAVLQSSGLYSLSSVVTVPSSSLGTQTYICNVNHKPSNTKVDKRVEPKSCDKTHTCPPCPAPELCCHPSVFLFPPKPKDTLMISRTPEVTCVVVGLRHEDPEVKFNWYVDGVEVHNAKTKPREEQYCGCYRVVSVLTVLHQDWLNGKEYKCKVSNKALPAPIEKTISKAKGQPREPQVYTLPPSRDELTKNQVSLTCLVKGFYPSDIAVEWESNGQPENNYKTTPPVLDSDGSFFLYSKLTVDKSRWQQGNVFSCSVMHEALHNHYTQKSLSLSPGK
light: QAVVTQEPSLTVSPGGTVTLTCRSSTGAVTTSNYANWVQQKPGQAPRGLIGGTNKRAPWTPARFSGSLLGDKAALTLSGAQPEDEAEYFCALWYSNLWVFGGGTKLTVLGQPKAAPSVTLFPPSSEELQANKATLVCLISDFYPGAVTVAWKADSSPVKAGVETTTPSKQSNNKYAASSYLSLTPEQWKSHRSYSCQVTHEGSTVEKTVAPTECS
B2: IgG4_CD3_9_YTE (antibody)
heavy: EVQLVESGGGLVQPGGSLKLSCAASGFTFNTYAMNWVRQASGKGLEWVGRIRSKYNNYATYYADSVKDRFTISRDDSKSTLYLQMNSLKTEDTAVYYCVRHGNFGNSYVSWFAYWGQGTLVTVSSASTKGPSVFPLAPCSRSTSESTAALGCLVKDYFPEPVTVSWNSGALTSGVHTFPAVLQSSGLYSLSSVVTVPSSSLGTKTYTCNVDHKPSNTKVDKRVESKYGPPCPSCPAPEFCGGPSVFLFPPKPKDTLYITREPEVTCVVVDVSQEDPEVQFNWYVDGVEVHNAKTKPREEQFNSTYRVVSVLTVLHQDWLNGKEYKCKVSNKGLPSSIEKTISKAKGQPREPQVYTLPPSQEEMTKNQVSLTCLVKGFYPSDIAVEWESNGQPENNYKTTPPVLDSDGSFFLYSRLTVDKSRWQEGNVFSCSVMHEALHNHYTQKSLSLSL
light: B1 light
B3: CD3_5 (antibody, human IgG1, lambda)
heavy: B1 heavy with H245G, G273D, L274V, R275S, G306S
light: B1 light
B4: IgG4_CD3_8 (antibody)
heavy: B2 heavy with C240L, G241C, Y257M, T259S, E261T
light: B1 light
B5: IgG4_CD3_WT_YTE (antibody)
heavy: B2 heavy with C240L
light: B1 light
B6: IgG4_CD3_8_YTE (antibody)
heavy: B2 heavy with C240L, G241C
light: B1 light
B7: CD3_1_YTE (antibody, human IgG1, lambda)
heavy: B1 heavy with S247R, M260Y, S262T, T264E, V272T, H276D, R309S
light: B1 light
B8: IgG4_CD3_S228P_YTE (antibody)
heavy: B2 heavy with S233P, C240L
light: B1 light
B9: CD3_4_YTE (antibody, human IgG1, lambda)
heavy: B1 heavy with M260Y, S262T, T264E, G273D, L274V, R275S
light: B1 light
B10: CD3_DANAPA_YTE (antibody, human IgG1, lambda, N297A)
heavy: EVQLVESGGGLVQPGGSLKLSCAASGFTFNTYAMNWVRQASGKGLEWVGRIRSKYNNYATYYADSVKDRFTISRDDSKSTLYLQMNSLKTEDTAVYYCVRHGNFGNSYVSWFAYWGQGTLVTVSSASTKGPSVFPLAPSSKSTSGGTAALGCLVKDYFPEPVTVSWNSGALTSGVHTFPAVLQSSGLYSLSSVVTVPSSSLGTQTYICNVNHKPSNTKVDKRVEPKSCDKTHTCPPCPAPELLGGPSVFLFPPKPKDTLYITREPEVTCVVVAVSHEDPEVKFNWYVDGVEVHNAKTKPREEQYASTYRVVSVLTVLHQDWLNGKEYKCKVSNKALAAPIEKTISKAKGQPREPQVYTLPPSRDELTKNQVSLTCLVKGFYPSDIAVEWESNGQPENNYKTTPPVLDSDGSFFLYSKLTVDKSRWQQGNVFSCSVMHEALHNHYTQKSLSLSPGK
light: B1 light
B11: CD3_1 (antibody, human IgG1, lambda)
heavy: B1 heavy with S247R, V272T, H276D, R309S
light: B1 light
B12: CD3_4 (antibody, human IgG1, lambda)
heavy: B1 heavy with G273D, L274V, R275S
light: B1 light
B13: CD3_2_YTE (antibody, human IgG1, lambda)
heavy: B1 heavy with M260Y, S262T, T264E
light: B1 light
B14: CD3_5_YTE (antibody, human IgG1, lambda)
heavy: B10 heavy with L243C, G244C, A273D, A305C, T307C, A337P
light: B1 light
B15: IgG4_CD3_6 (antibody)
heavy: B2 heavy with G241C, Y257M, T259S, E261T
light: B1 light
B16: CD3_3 (antibody, human IgG1, lambda)
heavy: B1 heavy with V272T, H276D
light: B1 light
B17: CD3_3_YTE (antibody, human IgG1, lambda)
heavy: B1 heavy with M260Y, S262T, T264E, V272T, H276D
light: B1 light
B18: IgG4_CD3_6_YTE (antibody)
heavy: B2 heavy with G241C
light: B1 light

Substitutions are numbered along the chain they refer to.

The target in one assay is Gamma receptors FcγRI, FcγRII, and FcγRIII expressed on THP-1 cells. Kind of assay: cell-based or functional assay.
B1 displayed a Maximum response in RGA assay (LU) of 25500 LU.
Molecule B2 showed a Maximum response in RGA assay (LU) of 5610 LU.
On the same count and under the same terms, to B3 belongs 19900 LU.
B4 registered a Maximum response in RGA assay (LU) of 7040 LU.
The same measure, in the same setting: to B5 belongs 31800 LU; to B6, 6450 LU.
As for B7, the Maximum response in RGA assay (LU) stood at 12000 LU.
Same read-out and setting: under B8 stands 34900 LU.
The same measure, in the same setting: under B9 stands 16500 LU.
For the molecule B10, the Maximum response in RGA assay (LU) stood at 12300 LU.
For B11, the Maximum response in RGA assay (LU) came to 24700 LU.
Turning to B12, the Maximum response in RGA assay (LU) amounted to 24900 LU.
As to B13, the Maximum response in RGA assay (LU) was 11900 LU.
In the case of B14, the Maximum response in RGA assay (LU) worked out at 13100 LU.
Same read-out and setting: to B15 belongs 12000 LU; to B16, 23200 LU; to B17, 13100 LU.
The same measure, in the same setting: to B18 belongs 7910 LU.

A further assay deals with hC1q (human) (UniProt P02745). Description: SPR Biacore T200; IgG amine-coupled on CM5, hC1q as analyte; response normalized to parental (=100). Background: Surface plasmon resonance follows binding to a sensor surface in real time, without labels.
hC1q (human), sequence (P02745 23-245 limits assumed, chain 1 of 3): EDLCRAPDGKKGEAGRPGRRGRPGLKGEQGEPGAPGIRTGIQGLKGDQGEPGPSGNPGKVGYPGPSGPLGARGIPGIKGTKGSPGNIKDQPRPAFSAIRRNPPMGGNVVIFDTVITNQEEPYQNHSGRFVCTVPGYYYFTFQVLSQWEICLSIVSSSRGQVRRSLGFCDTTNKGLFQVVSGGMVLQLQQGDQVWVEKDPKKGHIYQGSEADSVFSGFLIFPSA
hC1q (human), sequence (P02746 28-253 limits assumed, chain 2 of 3, further chain): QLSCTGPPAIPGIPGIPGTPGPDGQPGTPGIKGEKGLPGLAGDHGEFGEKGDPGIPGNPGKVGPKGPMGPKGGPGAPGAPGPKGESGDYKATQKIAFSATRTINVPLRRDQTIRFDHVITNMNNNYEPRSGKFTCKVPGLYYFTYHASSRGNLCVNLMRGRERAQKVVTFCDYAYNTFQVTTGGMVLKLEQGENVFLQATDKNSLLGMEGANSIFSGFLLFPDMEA
hC1q (human), sequence (P02747 29-245 limits assumed, chain 3 of 3, further chain): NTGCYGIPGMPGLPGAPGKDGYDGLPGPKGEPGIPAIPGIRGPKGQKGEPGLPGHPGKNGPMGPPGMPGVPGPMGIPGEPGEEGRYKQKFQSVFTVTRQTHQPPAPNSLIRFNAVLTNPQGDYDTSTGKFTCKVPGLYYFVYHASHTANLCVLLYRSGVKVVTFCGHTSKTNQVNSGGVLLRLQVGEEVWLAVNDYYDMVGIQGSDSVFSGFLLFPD
On to B1, for which the Maximum response at 20 nM hC1q (RU) was found to be 7 RU.
As to B12, the Maximum response at 20 nM hC1q (RU) worked out at 9 RU.
On the same count and under the same terms, under B16 stands 7 RU.
